# Source: publication PMC2360559, “Repeated cycles of Clostridium-directed enzyme prodrug therapy result in sustained antitumour effects in vivo” (British Journal of Cancer, 2006)
# Test system: NC(=O)c1cc(N2CC2)c([N+](=O)[O-])cc1[N+](=O)[O-]
# Assay: purified protein
# Format: biochemical, Haemophilus influenzae
# Conditions: 100–1000 μM CB 1954, 500 μM NADPH, 37°C, 10 min, product 4HX
substance,measurement,value
NTR-H; Haemophilus influenzae NfnB; YC78_HAEIN; HinNTR (Haemophilus influenzae Rd KW20),Km,690 µM
same,kcat,56.2 s⁻¹
